Test results published in article PMC6987200 (Nature Communications, 2020).
“And” between values parts separate entries of the source, which are not always exact repeats. Identical values can stand only once. Values belong to the binder of their own block, whether it stands above or below them.

How the values were obtained:
[1] = target: the molecule itself; assay: native MS; OmpF after detergent exchange from n-octyl-β-D-glucopyranoside to OGDs 1-3 on Superdex 200; MS buffer 200 mM NH4OAc, pH 6.8; HCD 200 V
[2] = target: T1, aquaporin channel (AqpZ) fused to GFP, P60844; assay: native MS; AqpZ-GFP after extraction with OGD batches and IMAC; MS buffer 200 mM NH4OAc, pH 6.8, with detergent; modified Q Exactive, HCD 200 V; settings: remark: other sources report otherwise
T1 chain: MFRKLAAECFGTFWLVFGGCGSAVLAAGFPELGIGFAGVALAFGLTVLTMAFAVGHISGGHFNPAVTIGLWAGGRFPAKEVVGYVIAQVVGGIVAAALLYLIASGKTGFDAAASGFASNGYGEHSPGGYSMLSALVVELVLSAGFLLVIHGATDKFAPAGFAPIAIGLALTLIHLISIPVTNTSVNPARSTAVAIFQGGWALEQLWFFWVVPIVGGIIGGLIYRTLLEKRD

B1: OmpF (natural protein, UniProt P02931 23-362, looked up)
chain: AEIYNKDGNKVDLYGKAVGLHYFSKGNGENSYGGNGDMTYARLGFKGETQINSDLTGYGQWEYNFQGNNSEGADAQTGNKTRLAFAGLKYADVGSFDYGRNYGVVYDALGYTDMLPEFGGDTAYSDDFFVGRVGGVATYRNSNFFGLVDGLNFAVQYLGKNERDTARRSNGDGVGGSISYEYEGFGIVGAYGAADRTNLQEAQPLGNGKKAEQWATGLKYDANNIYLAANYGETRNATPITNKFTNTSGFANKTQDVLLVAQYQFDFGLRPSIAYTKSKAKDVEGIGDVDLVNYFEVGATYYFNKNMSTYVDYIINQIDSDNKLGVGSDDTVAVGIVYQF
notes: OmpF, a bacterial outer membrane protein; also called trimeric OmpF; source: detergent exchanged on Superdex 200
stoichiometry N [1]: 3

stoichiometry N [2]: 4 and 2
B2: aquaporin channel (AqpZ) fused to GFP, P60844 1-231 (natural protein)
chain: T1 chain
